Results as given in US11702666B2, “Cell-based assay for determining activity in the retinoblastoma pathway” (Medical Diagnostic Laboratories, LLC, priority 2017, dated 2023).
Like-named read-outs stand apart in the source and are kept apart here. One block for each molecule: values may come before it.

Columns and labels:
[1] = system: Rb/E2F1-Dp-1 complex; experiment: CDK6 mutant activity / drug resistance in NanoBiT assay, stable cell line #11; assay type: cell-based, human; conditions: CDK6 mutants
Experimental: A linear expression cassette of mutated CDK4 or CDK6 was generated by PCR mediated overlapping extension method. A pair of forward and reverse primers containing the targeted mutations was designed. The mutated codon was located in the middle of a primer flanked by 18-21 nucleotides on each side. Two PCRs (named as PCR #1 and PCR #2 in FIG. 1) were performed using UF-CMV forward and mutated reverse primers, or mutated forward and BGH-UR primers. The PCR products were cleaned up by ExoSAP-IT® (Affymetrix) to remove unconsumed dNTPs and primers. The treated PCR products were mixed together followed by dilution with water. A second round of PCR was performed using the diluted PCR mixture, and the UF and UR primers (FIG. 1). The amplified products were gel-purified. The DNA concentration was quantitated by the optical density at 260 nm using Nanodrop. The targeted mutations were incorporated in the CDK4 or CDK6 genes during the PCR mediated overlapping extension method. The introduced mutations were confirmed by the DNA sequencing.
To examine the ability of the assay to detect variants in CDK4 or CDK6 that affect function, kinase dead mutants and COSMIC (Catalogue Of Somatic Mutations in cancer) unknown mutants were created. For comparison, hyperactive CDK4 or CDK6 mutants known to be hyperactive due to less binding to natural inhibitor p16 were also created. The mutations in CDK4 or CDK6 were created by site-directed mutagenesis. WT or mutated CDK4 or CDK6 along with the CyclinD1 and SB-Rb were co-transfected, under similar conditions as previously indicated (see FIG. 9).
Computer modeling was used to reveal the drug-binding pocket and predict drug-resistant mutants. The mutations in CDK4 and CDK6 were created by site-directed mutagenesis. WT or mutated CDK4 or CDK6 along with the CyclinD1 and SB-Rb was co-transfected into #11 cell line, under the same conditions as previously indicated. […] Dose response curves are presented on FIG. 13A and FIG. 13B. Activity of other mutants was very similar to the WT or KD.
CDK4 and CDK6 mutants with known function and unknown function taken from the COSMIC database were analyzed in the present assay and are summarized in Table 7A and Table 7B. The mutants were classified according to their activity. Table 7A and Table 7B also show the number of counts per mutant in the COSMIC database, type of cancer, and luciferase activity compared to the WT (being 100%).

[2] = molecular target: T1, CDK6 (Homo sapiens, UniProt Q00534, R31C); experiment: p16 activity assay with CDK6 (NanoBiT, cell line #11); assay type: cell-based; conditions: compared to WT CDK6
T1 construct: expressed in transfected cells; host or cells: HEK293 CDK4/CDK6 double-knockout cells stably expressing E2F1-Dp-1-LB (clone #11); early experiments in plain HEK293
T1 sequence (Q00534 whole entry R31C): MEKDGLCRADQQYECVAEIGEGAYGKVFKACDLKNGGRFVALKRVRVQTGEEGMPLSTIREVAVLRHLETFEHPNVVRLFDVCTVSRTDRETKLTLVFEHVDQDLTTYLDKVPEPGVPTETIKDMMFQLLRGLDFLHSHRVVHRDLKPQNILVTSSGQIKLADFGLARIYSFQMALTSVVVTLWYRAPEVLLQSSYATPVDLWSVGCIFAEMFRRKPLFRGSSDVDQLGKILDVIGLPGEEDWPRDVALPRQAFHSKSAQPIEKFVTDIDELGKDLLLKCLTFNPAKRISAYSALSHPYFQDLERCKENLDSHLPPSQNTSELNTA
Source text: (§1) We developed an assay that could measure the interaction between Rb, E2F1 and Dp-1. When the Rb and E2F1 proteins are in close proximity or in complex, a light signal is observed. For the purpose of the assay, split-luciferase complementation was used to measure the interaction between Rb and E2F1, which served as a surrogate measure of CDK4/6 activity and the ability of CDK4/6 to respond to the natural inhibitor p16. The NanoBiT assay system by Promega (Madison, Wis.; Dixon et al., 2015, ACS ChemBiol) was used in the split luciferase complementation design. FIG. 24 depicts a design of a signal system to measure p16 activity. Under basal conditions inside the cell, Rb is active and interacts with the E2F1/Dp-1 heterodimer. However, in the presence of the CDK4 or CDK6, Rb gets phosphorylated and released from the interacting complex. In the presence of the natural inhibitor p16, CDK4/6 is no longer available to phosphorylate Rb and thus promoting the Rb/E2F1-Dp-1 complex formation.
For the purpose of the current assay, the stable cell line #11 that we generated for the CDK activity assay was used and described above. HEK293 CDK DKO cells containing E2F1-Dp-1-LB was transiently transfected with CDK4/CDK6, CyclinD1, and SB-Rb. The transfected cells were then exposed to the natural inhibitor p16 (FIG. 25). […]

[3] = system: Rb/E2F1-Dp-1 complex; conditions: CDK6 mutants, literature ref.; Hyper = hyperactive, KD = kinase dead; cited from earlier work
[4] = system: Rb/E2F1-Dp-1 complex; experiment: CDK4 mutant activity / drug resistance in NanoBiT assay, stable cell line #11; assay type: cell-based, human; conditions: CDK4 mutants, compared to the WT (being 100%)
Outline: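 Wild-type or mutant CDK4/CDK6, made by overlap-extension PCR site-directed mutagenesis and sequence-confirmed, was co-transfected with CyclinD1 and SB-Rb into stable NanoBiT line #11. Loss of Rb phosphorylation raises luminescence; activity expressed as luciferase signal relative to WT (100%), with drug dose-response curves for predicted resistance mutants.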

[5] = molecular target: T2, CDK4 (Homo sapiens, UniProt P11802, R24A); experiment: p16 activity assay with CDK4 (NanoBiT, cell line #11); assay type: cell-based; conditions: compared to WT CDK4
T2 construct: expressed in transfected cells; host or cells: HEK293 CDK4/CDK6 double-knockout cells stably expressing E2F1-Dp-1-LB (clone #11); early experiments in plain HEK293
Source text: as §1
For the purpose of the current assay, the stable cell line #11 that we generated for the CDK activity assay was used and described above. HEK293 CDK DKO cells containing E2F1-Dp-1-LB was transiently transfected with CDK4/CDK6, CyclinD1, and SB-Rb. The transfected cells were then exposed to the natural inhibitor p16 (FIG. 25). When CDK4 or CDK6 is present, a decrease in activity was observed as Rb gets phosphorylated resulting in no Rb/E2F1-Dp-1 interaction. […] The data presented was a sample experiment where each condition was performed in triplicate and represented mean+SD.
The conditions of the assay were optimized by using different p16 amounts and cell numbers (FIGS. 25A and 25B). Based on the data generated, it was decided that using 0.2×10^6 cells/ml and 10 ng of p16 would be preferable.
To examine the ability of the assay to detect variants in CDKN2A that affect function, known loss of function mutants and unknown COSMIC mutants were created. Wild-type or mutated CDKN2A were prepared in a manner similar to that previously indicated. […] Therefore the p16 activity assay is capable of determining the relative activity level of p16 mutants. The data provided is in Luminescence (RLU) of a single experiment with each condition performed in triplicate and represent average+SD. Summary Table 13 reports p16 mutants tested.
In addition to check functional state of p16 mutants, p16 activity assay can be used to look at p16 inhibition response of different CDK4 and CDK6 mutants. Different response of WT CDK4 and CDK6 and hyperactive mutants of CDK4 (R24A) and CDK6 (R31C) is shown on FIG. 28. […] The p16 activity assay is so sensitive and specific that hyperactive CDK4 and CDK6 mutants can show different response to mutant p16.

[6] = system: Rb/E2F1-Dp-1 complex; conditions: CDK4 mutants, literature ref.; Hyper = hyperactive, KD = kinase dead; cited from earlier work

p16 inhibition response of hyperactive CDK6 mutant (luminescence) [2]: decreased level of luminescence
Molecule: CDK6 R31C: CDK6 mutant, literature hyperactive
Luc activity (/wt) ([1]; compared to the WT (being 100%)): 66%
luciferase signal compared to WT CDK6 (in words) ([1]; no drug): a little bit lower basal signal than WT
Reported activity [3]: Hyper

p16 inhibition response of hyperactive CDK4 mutant (luminescence) [5]: decreased level of luminescence
B1: CDK4 R24A: CDK4 mutant, literature hyperactive (protein)
chain: ATSRYEPVAEIGVGAYGTVYKAADPHSGHFVALKSVRVPNGGGGGGGLPISTVREVALLRRLEAFEHPNVVRLMDVCATSRTDREIKVTLVFEHVDQDLRTYLDKAPPPGLPAETIKDLMRQFLRGLDFLHANCIVHRDLKPENILVTSGGTVKLADFGLARIYSYQMALTPVVVTLWYRAPEVLLQSTYATPVDMWSVGCIFAEMFRRKPLFCGNSEADQLGKIFDLIGLPPEDDWPRDVSLPRGAFPPRGPRPVQSVVPEMEESGAQLLLEMLTFNPHKRISAFRALQHSYLHKDEGNPE
Luc. activity (/wt) [4]: 79%
Reported activity [6]: Hyper
